Among the data in patent publication US20250129155A1 (INNOBATION BIO, published 2025) are Mean, Median and OD450 measurements values, retold here.

Assay [1] concerns the target CD47 on CD47-overexpressing breast cancer cell line MCF-7 (UniProt Q08722). Put plainly: flow cytometry on MCF-7 cells, secondary antibody alone (background control).
The target is the same in assay [2]. Kind of assay: flow cytometry on MCF-7 cells, PE anti-human CD47, 5 µl. On the technique in general: Flow cytometry measures light scatter and fluorescence of single cells or particles in a stream.
In assay [3] the target is T1, CD47 protein (Acrobiosystems, cat #CD7-HA2E9) (UniProt Q08722 19-139).
T1 construct: Bought recombinant protein coated on the ELISA plate at 100 ng/well; also called CD47 antigen; CD47 peptide
T1 sequence (Q08722 19-139 limits assumed): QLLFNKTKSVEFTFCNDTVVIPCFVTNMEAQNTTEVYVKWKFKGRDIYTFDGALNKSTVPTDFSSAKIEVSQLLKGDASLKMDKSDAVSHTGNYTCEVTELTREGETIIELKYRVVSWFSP
Put plainly: ELISA, CD47 protein coated 100 ng/well, 0.8 µg antibody per well. The protocol:
The purified 0.8 μg humanized antibody was treated in each well, and then reacted at room temperature for 2 hours, and then washed 3 times with 1×PBST. Secondary antibody ([…], 1:5,000) was treated and reacted at room temperature for 30 minutes, washed 3 times with 1×PBST, and then treated with TMB for color development and reacted at room temperature for 5 minutes. Finally, the reaction was terminated by treatment with a stop solution of 1 N H₂SO₄, and then the absorbance was measured at 450 nm.
(ELISA stands for enzyme-linked immunosorbent assay.)

Where a chain is given by its changes, count along the chain named.

CD47 on CD47-overexpressing breast cancer cell line MCF-7, sequence (Q08722 19-323 limits assumed): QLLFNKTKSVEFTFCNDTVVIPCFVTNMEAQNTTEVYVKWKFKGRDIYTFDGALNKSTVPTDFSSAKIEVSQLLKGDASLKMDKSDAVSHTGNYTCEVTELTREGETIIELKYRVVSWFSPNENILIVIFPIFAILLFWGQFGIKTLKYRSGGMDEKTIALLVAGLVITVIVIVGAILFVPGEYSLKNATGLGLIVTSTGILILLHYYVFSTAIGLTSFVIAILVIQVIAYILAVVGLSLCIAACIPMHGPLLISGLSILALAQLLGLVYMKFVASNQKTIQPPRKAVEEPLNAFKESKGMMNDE

With “PE-conjugated goat anti-mouse IgG antibody (Biolegend Inc., cat #405307)”, in assay [1], the Mean worked out at 80 and the Median was 73.9.
In assay [2], “CD47 antibody (Biolegend PE anti-human CD47, cat #323108)” yielded a Mean of 11900 and a Median of 11000.

B1: Hu3A5(V11) antibody (antibody, V domains shown)
VH: EVQLVQSGSELKKPGASVKVSCKASGYTFTSYWMHWMRQAPGQGLEWIGVIDPSDSYTSYNQGFTGRFVLSVDTSVSTAYLQISSLKAEDTAVYYCARGGKRAMDYWGQGTTVTVSS
VL: DVVMTQSPDSLAVSLGERATINCKSSQSLVHSNGNTYLHWYQQKPGQPPKLLIYKVSNRFSGVPDRFSGSGSGTDFTLTISSLQAEDVAVYFCSQSTHVPFTFGGGTKLEIK
In assay [3], B1 gave an OD450 measurements of 2.81 OD450.

B2: Hu3A5(V16) antibody (antibody, V domains shown)
VH: B1 VH with E1Q, H35N, M37V, I48M, L70F
VL: B1 VL with F92Y
Molecule B2 came in with an OD450 measurements in assay [3] of 0.106 OD450.

B3: Hu3A5(V15) antibody (antibody, V domains shown)
VH: B1 VH with E1Q, H35N, M37V, I48M, L70F
VL: B1 VL
B3 yielded an OD450 measurements in assay [3] of 0.111 OD450.

B4: Hu3A5(V12) antibody (antibody, V domains shown)
VH: B1 VH
VL: B1 VL with F92Y
Regarding B4, the OD450 measurements in assay [3] was 2.85 OD450.

B5: Hu3A5(V1) antibody (antibody, V domains shown)
VH: EVQLVQSGAEVKKPGASVKVSCKASGYTFTSYWMHWMRQAPGQGLEWIGVIDPSDSYTSYNQKFQGRVTLTVDTSTSTAYMELSSLRSEDTAVYYCARGGKRAMDYWGQGTTVTVSS
VL: DVVMTQSPLSLPVTLGQPASISCRSSQSLVHSNGNTYLHWFQQRPGQSPRLLIYKVSNRFSGVPDRFSGSGSGTDFTLKISRVEAEDVGVYFCSQSTHVPFTFGGGTKLEIK
B5 had an OD450 measurements in assay [3] of 2.58 OD450.

B6: Hu3A5 (V9) antibody (antibody, V domains shown)
VH: B1 VH
VL: B5 VL
In assay [3], B6 registered an OD450 measurements of 2.65 OD450.

B7: Hu3A5 (V3) antibody (antibody, V domains shown)
VH: B5 VH
VL: B1 VL
In assay [3], B7 showed an OD450 measurements of 2.54 OD450.

B8: Hu3A5(V10) antibody (antibody, V domains shown)
VH: B1 VH
VL: B5 VL with F92Y
notes: also called humanized 3A5(V10) antibody; humanized Hu3A5(V10) antibody
B8 returned an OD450 measurements in assay [3] of 2.81 OD450.

B9: Hu3A5(V14) antibody (antibody, V domains shown)
VH: B1 VH with E1Q, H35N, M37V, I48M, L70F
VL: B5 VL with F92Y
Take B9: the OD450 measurements in assay [3] was 0.147 OD450.

B10: Hu3A5 (V8) antibody (antibody, V domains shown)
VH: B5 VH with E1Q, M37V, I48M, L70M
VL: B1 VL with F92Y
For B10, the OD450 measurements in assay [3] stood at 2.45 OD450.

B11: Hu3A5(V13) antibody (antibody, V domains shown)
VH: B1 VH with E1Q, H35N, M37V, I48M, L70F
VL: B5 VL
As for B11, the OD450 measurements in assay [3] came to 0.0966 OD450.

B12: Hu3A5 (V6) antibody (antibody, V domains shown)
VH: B5 VH with E1Q, M37V, I48M, L70M
VL: B5 VL with F92Y
The molecule B12 returned an OD450 measurements in assay [3] of 2.62 OD450.

B13: Hu3A5 (V7) antibody (antibody, V domains shown)
VH: B5 VH with E1Q, M37V, I48M, L70M
VL: B1 VL
In assay [3], B13 registered an OD450 measurements of 2.67 OD450.

B14: Hu3A5 (V2) antibody (antibody, V domains shown)
VH: B5 VH
VL: B5 VL with F92Y
Molecule B14 registered an OD450 measurements in assay [3] of 2.69 OD450.

B15: Hu3A5 (V4) antibody (antibody, V domains shown)
VH: B5 VH
VL: B1 VL with F92Y
As to B15, the OD450 measurements in assay [3] was 2.74 OD450.

B16: Hu3A5 (V5) antibody (antibody, V domains shown)
VH: B5 VH with E1Q, M37V, I48M, L70M
VL: B5 VL
Regarding B16, the OD450 measurements in assay [3] amounted to 2.57 OD450.
